Test results reported in patent US20170306048A1 (SORRENTO THERAPEUTICS, published 2017).
“And” between values parts separate entries of the source, which are not always exact repeats. Equal entries are not always repeated.

B1: anti-STAT3 antibody ST1A5 (antibody, V domains shown)
VH: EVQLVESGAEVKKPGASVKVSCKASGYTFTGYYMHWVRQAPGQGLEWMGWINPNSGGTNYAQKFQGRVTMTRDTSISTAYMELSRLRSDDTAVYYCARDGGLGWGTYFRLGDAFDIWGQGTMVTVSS
VL: QSVLTQPPSVSKGLRQTATLTCTGNSNNVGNEGAAWLQQHQGHPPKLLSYRNFNRPSGISERFSASRSGNTASLTITGLQPEDEADYYCSAWDSSLSAWVFGGGTKLTVL
notes: Fully human monoclonal antibody detected with anti-human IgG; also called Ab#2
B2: anti-STAT3 antibody ST3G12 (naked / unmodified) (antibody, V domains shown)
VH: QVQLVQSGAEVKKPGASVKVSCKASGYTFTSYYMHWVRQAPGQGLEWMGIINPSGGSTSYAQKFQGRVTMTRDTSTSTVYMELSSLRSEDTAVYYCARSDYVHSFDIWGQGTMVTVSS
VL: QPVLTQPPSASALLGASIKLTCTLSSEHSTYTVEWYQQRPGRSPQYIMNVKSDGSYNKGDGIPDRFMGSSSGADRYLTFSNLQSDDEAEYHCGESHRIDGQVGVVFGGGTKLTVL
notes: Fully human monoclonal antibody, detected with anti-human IgG and captured with anti-human Fc; also called Ab#1; ST3G12-unmodified
B3: ST3G12-PS antibody conjugate (compound 901) (antibody, V domains shown)
VH: B2 VH
VL: B2 VL
notes: also called PS-ST3G12; Anti-STAT3-PS

Experiments:
[1] = molecular target: T1, human STAT3, endogenous, in human cell lines (U251, MDA-MB-468, HeLa, MCF-10A, MCF-7, COLO205) (human, UniProt P40763 2-770); experiment: flow cytometry on PFA-fixed, methanol-permeabilised MDA-MB-468 cells, PE anti-human IgG, MFI (FL-2)
T1 construct: whole, on cells; also called cellular antigens
Protocol: (§1) Next, the binding of the candidate anti-STAT3 antibodies to cellular targets was tested in cell binding assays using MDA-MB-435 breast cancer cells and U251 cells. The cells were seeded overnight in a 96 well plate, then fixed with PFA and permeabilized with methanol. Cells were incubated with serial dilutions of the anti-STAT3 antibody candidates ST1A5, ST3G12 and ST5G12 for one hour and 30 minutes. Following incubation, the cells were washed and incubated for 30 minutes with phycoerythrin (PE) conjugated anti-human IgG. Fluorescence was measured on an Intellicyte high-throughput flow cytometry analyzer. […] Bevacizumab (Avastin), a monoclonal antibody that inhibits vascular endothelial growth factor A (VEGF-A) was used as a negative control.

[2] = molecular target: T2, recombinant human STAT3 protein (human, UniProt P40763 1-770, limits assumed); experiment: ELISA on recombinant human STAT3 protein, Abs 450
T2 construct: also called recombinant human STAT3 proteins; antigen

[3] = molecular target: T2, recombinant human STAT3 protein; experiment: ELISA in Superblock buffer, OD 450 nm; antigen named neither on the sheet nor in legend paragraph 54, taken as the antibody's antigen STAT3, ng/ml is the unit of the x axis
[4] = molecular target: T3, mouse STAT3, endogenous, in mouse cell lines CT-26 and MC-38 (mouse, UniProt P42227 2-770); experiment: flow cytometry on fixed, permeabilised mouse CT-26 and MC-38 cells, PE anti-human IgG; antibody concentration not given
T3 construct: whole, on cells; Intracellular protein

[5] = molecular target: T4, recombinant human STAT3-GST (human, UniProt P40763 1-770, limits assumed); experiment: SPR (Biacore T200), antibody captured on anti-human Fc, STAT3-GST as analyte, 1:1 model
T4 construct: Analyte in the Biacore assay; not shown: GST (glutathione S-transferase) tag
Protocol: Anti-human Fc antibody (GE, BR-1008-39) was immobilized on a CM5 sensor chip to approximately 1000 RU using standard NHS/EDC coupling methodology. Antibodies (approximately 10 ug/ml) were captured for 60 seconds at a flow rate of 10 ul/min Recombinant human STAT3-GST was serially diluted 2-fold into running buffer (HBS-EP+, starting from […]). All measurements were conducted at a flow rate of 30 ul/min Surfaces were regenerated with 3M MgCl₂ (from human antibody kit) for 60 seconds. A 1:1 (Langmuir) binding model was used to fit the data.

[6] = molecular target: T2, recombinant human STAT3 protein; experiment: STAT3 binding ELISA, Hu-IgG-Fab detection (title on the sheet), OD 450 nm, ng/ml is the unit of the x axis
human IgG [7] = experiment: ELISA in Superblock buffer, OD 450 nm; partner not named on the sheet, legend paragraph 53 says 'to human IgG', ng/ml is the unit of the x axis
[8] = molecular target: T2, recombinant human STAT3 protein; experiment: ELISA on recombinant human STAT3 protein, absorbance at 450
[9] = molecular target: T1, human STAT3, endogenous, in human cell …; experiment: flow cytometry on PFA-fixed, methanol-permeabilised U251 cells, PE anti-human IgG, MFI (FL-2)
Protocol: as §1

[10] = molecular target: T1, human STAT3, endogenous, in human cell …; experiment: flow cytometry (HTFC) on permeabilised U251 cells, PE anti-human IgG
Protocol: After 45 minutes at room temperature, cells were washed twice and incubated with phycoerythrin (PE) conjugated-anti-human IgG for 20 minutes at room temperature in the dark. Cells were then washed and analyzed by high throughput flow cytometry (HTFC). The results are shown in FIG. 4 for assessment of antibody binding to U251 cells.

human IgG [11] = experiment: ELISA in Superblock buffer, OD 450 nm; partner not named on the sheet, legend paragraph 53 says 'to human IgG'; column taken as the curve ST3G12-PS superblock; unit from the x axis
[12] = molecular target: T2, recombinant human STAT3 protein; experiment: ELISA in Superblock buffer, OD 450 nm; antigen named neither on the sheet nor in legend paragraph 54, taken as the antibody's antigen STAT3; unit from the x axis

T2 sequence (P40763 whole entry): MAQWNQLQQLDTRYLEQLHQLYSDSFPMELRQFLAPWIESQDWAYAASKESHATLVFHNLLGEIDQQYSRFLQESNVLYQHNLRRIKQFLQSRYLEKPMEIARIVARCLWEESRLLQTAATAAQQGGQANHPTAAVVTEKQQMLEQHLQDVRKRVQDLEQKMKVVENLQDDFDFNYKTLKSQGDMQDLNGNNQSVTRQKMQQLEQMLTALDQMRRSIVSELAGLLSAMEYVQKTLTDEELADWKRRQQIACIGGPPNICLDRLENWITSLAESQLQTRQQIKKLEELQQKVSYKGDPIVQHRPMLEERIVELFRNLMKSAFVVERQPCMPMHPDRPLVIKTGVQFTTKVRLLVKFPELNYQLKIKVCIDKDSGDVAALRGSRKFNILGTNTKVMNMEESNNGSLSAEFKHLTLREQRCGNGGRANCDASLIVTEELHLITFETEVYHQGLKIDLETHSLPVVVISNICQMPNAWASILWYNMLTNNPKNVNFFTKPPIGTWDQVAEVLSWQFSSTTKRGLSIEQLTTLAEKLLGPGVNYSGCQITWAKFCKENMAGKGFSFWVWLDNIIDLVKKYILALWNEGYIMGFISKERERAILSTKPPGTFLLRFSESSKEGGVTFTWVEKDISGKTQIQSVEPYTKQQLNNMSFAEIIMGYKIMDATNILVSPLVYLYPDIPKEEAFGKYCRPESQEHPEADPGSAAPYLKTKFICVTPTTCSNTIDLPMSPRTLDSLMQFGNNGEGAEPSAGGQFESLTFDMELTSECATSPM
T4 sequence (P40763 whole entry): as above
T1 sequence (P40763 2-770): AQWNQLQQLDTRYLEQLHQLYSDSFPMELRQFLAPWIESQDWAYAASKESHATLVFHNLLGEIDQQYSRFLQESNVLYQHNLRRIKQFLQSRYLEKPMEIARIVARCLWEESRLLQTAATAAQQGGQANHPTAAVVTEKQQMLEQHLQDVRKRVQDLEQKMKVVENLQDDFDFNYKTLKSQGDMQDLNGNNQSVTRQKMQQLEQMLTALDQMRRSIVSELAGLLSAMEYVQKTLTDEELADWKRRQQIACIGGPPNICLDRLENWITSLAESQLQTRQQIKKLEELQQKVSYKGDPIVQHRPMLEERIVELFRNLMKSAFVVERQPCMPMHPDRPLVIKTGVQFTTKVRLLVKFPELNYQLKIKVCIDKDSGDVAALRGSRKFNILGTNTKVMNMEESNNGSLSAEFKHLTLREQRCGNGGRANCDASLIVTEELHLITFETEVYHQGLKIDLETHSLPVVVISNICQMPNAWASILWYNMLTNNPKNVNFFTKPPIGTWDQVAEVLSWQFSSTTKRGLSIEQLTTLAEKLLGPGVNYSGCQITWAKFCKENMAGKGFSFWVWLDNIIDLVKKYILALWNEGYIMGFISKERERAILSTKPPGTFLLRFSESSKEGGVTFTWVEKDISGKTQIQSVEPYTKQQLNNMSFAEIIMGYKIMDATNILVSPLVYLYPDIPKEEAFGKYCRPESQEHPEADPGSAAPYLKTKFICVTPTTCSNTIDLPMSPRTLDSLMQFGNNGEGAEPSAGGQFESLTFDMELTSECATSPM
T3 sequence (P42227 2-770): as the sequence (P40763 2-770) above, with E759D counted along it

| Binder | EC50 (read off the curve) [1] | EC50 (read off the curve) [2] | EC50 [3] | binding result [4] | Kd [5] | koff [5] | kon [5] | EC50 [6] | EC50 (human IgG [7]) | EC50 (read off the curve) [8] | EC50 (read off the curve) [9] | EC50 (read off the curve) [10] | EC50 (human IgG [11]) | EC50 [12] |
| --- | --- | --- | --- | --- | --- | --- | --- | --- | --- | --- | --- | --- | --- | --- |
| B1 | ~5 nM | – | – | – | – | – | – | – | – | – | – | – | – | – |
| B2 | – | ~0.06 µg/mL | 0.0257 µg/mL | binds | 5.39 nM | 0.000322 s⁻¹ | 59700 M⁻¹ s⁻¹ | 0.155 µg/mL | 0.122 µg/mL | ~0.007 µg/mL | ~4 nM | ~10 nM | – | – |
| B3 | – | ~0.06 µg/mL and ~0.1 µg/mL | – | – | 0.222 nM | 0.00011 s⁻¹ | 494000 M⁻¹ s⁻¹ | 0.153 µg/mL | – | ~0.007 µg/mL | – | – | 0.186 µg/mL | 0.0643 µg/mL |
